Measurements as given in patent US20170174750A1.

B1: EGFP-CC^mut3 (expressed from pEGFP-CC^mut3) (designed binder)
chain: MVDPVGFAEAWKAQFPDSEPPRMELRSVGDIEQELERAEARIRRDEQRVNQERFRMIYLETLLAKEKKSYDR
B2: mCherry-CC^mut3 fusion (expressed from pmCherry-CC^mut3) (designed binder)
chain: B1 chain

Experiments:
[1] = molecular target: p210 BCR-ABL1 T315I kinase domain mutant stably expressed in Ba/F3 cells (Homo sapiens (Human)) (UniProt P11274)
[2] = molecular target: endogenous Bcr-Abl of K562 cells (human leukemia Bcr-Abl+ cells; wild-type, unmutated) (human) (UniProt P11274)
[3] = molecular target: p210 Bcr-Abl (native, non-mutated) stably expressed in Ba/F3 cells (Homo sapiens (Human)) (UniProt P11274)
[4] = molecular target: p210 BCR-ABL1 T315I kinase domain mutant stably expressed in Ba/F3 cells (Homo sapiens (Human)) (UniProt P11274); remark: listed apart in the source
[5] = molecular target: p210 BCR-ABL1 E255V kinase domain mutant stably expressed in Ba/F3 cells (Homo sapiens (Human)) (UniProt P11274)
[6] = molecular target: p210 BCR-ABL1 E255V/T315I compound mutant stably expressed in Ba/F3 cells (Homo sapiens (Human)) (UniProt P11274)

| Binder | colony forming assay (transformative ability) of Ba/F3-p210-T315I cells [1] | colony forming assay (transformative ability) of K562 cells (fold decrease) [2] | apoptosis (Annexin V / 7-AAD, 72 h) of Ba/F3 cells expressing native BCR-ABL1 (fold increase) [3] | cell proliferation (MTS assay) of Ba/F3 cells expressing native BCR-ABL1 (fold reduction) [3] | cell proliferation (MTS assay) of Ba/F3 cells expressing BCR-ABL1 T315I (fold reduction) [4] | colony formation assay of Ba/F3 cells expressing BCR-ABL1 T315I (fold reduction) [4] | cell proliferation (MTS assay) of Ba/F3 cells expressing BCR-ABL1 E255V (fold reduction) [5] | colony formation assay of Ba/F3 cells expressing BCR-ABL1 E255V (fold reduction) [5] | colony formation assay of Ba/F3 cells expressing BCR-ABL1 E255V/T315I [6] |
| --- | --- | --- | --- | --- | --- | --- | --- | --- | --- |
| B1 | 40% | 3 |  |  |  |  |  |  |  |
| B2 |  |  | 3 | > 2 | 3 | > 10 | 3 | > 10 | 50% |
